Experimental data: US20230192794A1

Target: IL10Rβ on human cell lines (HT-29, HEK-293T) (human (cells stated as human)) (UniProt Q08334)
Test: cell-based or functional assay

IL10Rβ on human cell lines (HT-29, HEK-293T) (human (cells stated as human)), sequence (Q08334 20-325): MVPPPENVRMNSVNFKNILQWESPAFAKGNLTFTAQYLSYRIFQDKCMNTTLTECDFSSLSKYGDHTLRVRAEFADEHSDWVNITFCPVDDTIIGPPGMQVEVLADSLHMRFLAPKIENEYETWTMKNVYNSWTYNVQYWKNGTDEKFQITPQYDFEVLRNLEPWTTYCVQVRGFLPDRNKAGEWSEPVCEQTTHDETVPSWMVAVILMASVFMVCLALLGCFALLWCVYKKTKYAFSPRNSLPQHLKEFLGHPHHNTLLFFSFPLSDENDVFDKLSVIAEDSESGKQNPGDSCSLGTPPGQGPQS

Question: Which results are given for “22-B3 (mouse IL-22 S45E/Q116A/K124A/Q128A) (from UniProt Q9JJY9 34-179) (ligand)”?
Answer: Emax for STAT1 (phospho-Y701-STAT1) in HT-29 cells, phospho-flow (% of the WT IL-22 Emax): 30; Emax for STAT3 (phospho-Y705-STAT3) in HT-29 cells, phospho-flow (% of the WT IL-22 Emax): 100
